Reference: IntAct's records for PubMed 18303947

B1: NMDA receptor synaptonuclear signaling and neuronal migration factor (Mus musculus), Q99NF2-1 (parent)
chain: MGAAASRRRALRSEAMSSVAAKVRAARAFGEYLSQSHPENRNGADHLLADAYSGHDGSPEMQPAPQNKRRLSLVSNGRYEGSISDEAVSGKPAIEGPQPHVYTISREPALLPGSEAEAIELAVVKGRRQRERHPHHHSQPLRASPGSSREDISRPCQSWAGSRQGSKECPGCAQLVPGPSSRAFGLEQPPLPEAPGRHKKLERMYSVDGVSDDVPIRTWFPKENLFSFQTATTTMQAISVFRGYAERKRRKRENDSASVIQRNFRKHLRMVGSRRVKAQTFAERRERSFSRSWSDPTPMKADTSHDSRDSSDLQSSHCTLDEACEDLDWDTEKGLEAMACNTEGFLPPKVMLISSKVPKAEYIPTIIRRDDPSIIPILYDHEHATFEDILEEIEKKLNIYHKGAKIWKMLIFCQGGPGHLYLLKNKVATFAKVEKEEDMIHFWKRLSRLMSKVNPEPNVIHIMGCYILGNPNGEKLFQNLRTLMTPYKVTFESPLELSAQGKQMIETYFDFRLYRLWKSRQHSKLLDFDDVL

Variants of: B1
Details: with Cabp1, O88751-1
Sequence of Cabp1, O88751-1 (O88751 whole entry): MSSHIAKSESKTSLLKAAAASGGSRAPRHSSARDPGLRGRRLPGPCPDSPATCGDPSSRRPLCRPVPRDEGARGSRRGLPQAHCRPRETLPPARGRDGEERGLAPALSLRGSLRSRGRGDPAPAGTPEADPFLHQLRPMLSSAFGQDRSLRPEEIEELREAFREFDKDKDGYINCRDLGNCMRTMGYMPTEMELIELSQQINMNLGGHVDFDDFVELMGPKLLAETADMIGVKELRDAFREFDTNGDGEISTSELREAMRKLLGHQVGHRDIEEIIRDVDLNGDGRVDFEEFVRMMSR

Variant | effect of a mutation on the interaction
F241E | disrupting interaction
